Reference: paper PMC2362355, “The two phyto-oestrogens genistein and quercetin exert different effects on oestrogen receptor function”

Target: oestrogen receptor (ER), recombinant human (human, UniProt P03372 1-595)
Test: EMSA; 10 nM oestradiol; supershifted by anti-ER HC-20; 20 mM HEPES pH 7.9, 60 mM KCl, 5 mM MgCl2, 2 mM DTT, 10% glycerol, 100 ug (unit prefix not given) BSA, 380 fmol ER, 6 ng ERE, 20 ul; 20 C 20 min then 37 C 15 min; 4% native PAGE in 90 mM Tris-borate, 2.5 mM EDTA pH 8.3
Details: protein: commercial; label: 32P end label (T4 PNK); (only one strand printed, described as complementary strands, 27 bp)

Chain of oestrogen receptor (ER), recombinant human (P03372 whole entry): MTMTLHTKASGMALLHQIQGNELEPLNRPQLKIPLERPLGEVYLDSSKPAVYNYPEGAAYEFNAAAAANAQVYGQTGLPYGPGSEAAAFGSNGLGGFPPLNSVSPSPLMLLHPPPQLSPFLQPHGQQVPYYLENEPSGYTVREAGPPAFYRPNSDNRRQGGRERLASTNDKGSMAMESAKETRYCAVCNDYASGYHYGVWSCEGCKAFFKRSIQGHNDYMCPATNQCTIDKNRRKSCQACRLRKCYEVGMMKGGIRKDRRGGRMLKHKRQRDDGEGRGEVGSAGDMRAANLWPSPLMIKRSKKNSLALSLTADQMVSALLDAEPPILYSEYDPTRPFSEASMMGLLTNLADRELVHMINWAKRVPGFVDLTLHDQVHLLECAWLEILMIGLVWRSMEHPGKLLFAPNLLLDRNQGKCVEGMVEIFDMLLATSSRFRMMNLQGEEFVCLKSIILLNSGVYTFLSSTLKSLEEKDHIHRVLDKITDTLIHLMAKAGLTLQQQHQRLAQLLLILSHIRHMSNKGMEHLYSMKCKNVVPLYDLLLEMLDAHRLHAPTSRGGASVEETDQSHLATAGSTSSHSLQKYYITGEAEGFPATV

B1: consensus ERE 27 bp (dsDNA)
DNA 1: GATCCAGGTCACAGTGACCTGGGCCCG
DNA 2: CGGGCCCAGGTCACTGTGACCTGGATC
- binding result: binds
